Assay [1] addresses BAX, recombinant human, wild type (human) (UniProt Q07812). Briefly: SEC.
In assay [2] the target is Alexa Fluor 488-labeled BAX^WT (human) (UniProt Q07812). Put plainly: SEC. Background: SEC sorts molecules by how far they enter the pores of the column.

The term stoichiometry N denotes the number of molecules, sites or subunits per partner or assembly. Turning to “BAX, recombinant human, wild type (from UniProt Q07812 1-192) (natural protein)”, the stoichiometry N in assay [1] stood at 2.

As to “Alexa Fluor 488-labeled BAX^WT (from UniProt Q07812 1-192) (natural protein)”, the stoichiometry N in assay [2] amounted to 2.

(Values after publication PMC11703243.)
